Experiments:
[1] = biological target: T1, silk fibroin, sericin-extracted, from degummed Bombyx mori silk, dissolved in 9.3 M LiBr and dialysed (Bombyx mori, UniProt P05790 22-5263; P21828 17-262, limits assumed); test: reading of the HPLC ratios of the silk precipitates
T1 construct: also called silk molecules
Protocol: (§1) The amount of 23RGD bound to silk precipitates was quantified by analyzing lyophilized samples. The 23RGD was removed by incubating the samples for 4 hours in a dissolving buffer, then centrifuging on an Eppendorf 5415C (Eppendorf North America Inc., Westbury, N.Y.) at 16,000 g (RCF) for 30 minutes and the supernatant collected. This supernatant was then centrifuged in identical fashion and the final supernatant collected for HPLC analysis using a PerkinElmer Series 200 (PerkinElmer, Waltham, Mass.). The 23RGD peak areas from each curve were compared against a standard curve. 1-Way ANOVA was used to test for significant differences caused by changing silk concentration, 23RGD concentration, and accelerant volume. A Student's t-test was used to test the significance of differences resulting from altered ethanol concentrations.

[2] = biological target: T1, silk fibroin, sericin-extracted, from …; test: HPLC of 23RGD extracted from silk precipitate; formulation 0.6S 3R 10:1
Protocol: as §1
Precipitate samples generated at a calculated 10:1 23RGD:silk ratio consistently generated a “correct” molecular binding ratio. In the case of AVHI, this runs contrary to the trend of bound 23RGD concentrations being approximately double the projected values as indicated by AVLO and BASE (about 5:1 and about 9:1, respectively). This might be explained by saturation of the silk with 23RGD in the case of 10:1 23RGD precipitates. […]

[3] = biological target: T1, silk fibroin, sericin-extracted, from …; test: HPLC of 23RGD extracted from lyophilised silk precipitate; formulation RHI
Protocol: as §1

[4] = biological target: T1, silk fibroin, sericin-extracted, from …; test: HPLC of 23RGD extracted from the rinsed silk gel, against a standard curve
Source text: 23RGD-infused gels were studied to quantify the amount of 23RGD bound to the silk-hydrogel device as well as the quantity of free 23RGD which might be rinsed free of the device under relevant conditions. Briefly, samples of 23RGD-infused gel were cast and rinsed according to the methods above, with samples of rinse buffer being collected from each rinse for subsequent analysis by HPLC. Additionally, subsequent to the last rinse, the gel samples were mechanically pulverized by means of a stainless steel stirring rod and the adsorbed 23RGD removed by incubation for 4 hours in a dissolving buffer. This mixture of gel and solvent was then centrifuged on an Eppendorf 5415C at 16,000 g RCF for 30 minutes. The supernatant was collected and centrifuged another 30 minutes at 16,000 g RCF after which time the supernatant was collected in a sample vial for HPLC analysis. Samples of rinse buffer from the first and last rinse were centrifuged in the same fashion after being diluted with the same solvent the gel was extracted with in a volumetric ratio of 1 part rinse buffer to 4 parts solvent. To ensure 23RGD-hydrogel device rinse-exposed surface area was not a limiting factor, the same rinse and extraction process was performed upon devices pulverized after gelation and before rinsing. […]

[5] = biological target: T1, silk fibroin, sericin-extracted, from …; test: HPLC of 23RGD extracted from lyophilised silk precipitate; formulation AVHI
Protocol: as §1

[6] = biological target: T1, silk fibroin, sericin-extracted, from …; test: HPLC of 23RGD extracted from lyophilised silk precipitate; formulation AVLO
Protocol: as §1

[7] = biological target: T1, silk fibroin, sericin-extracted, from …; test: HPLC of 23RGD extracted from lyophilised silk precipitate; formulation BASE
Protocol: as §1

[8] = biological target: T1, silk fibroin, sericin-extracted, from …; test: HPLC of 23RGD extracted from lyophilised silk precipitate; formulation SCLO
Protocol: as §1

[9] = biological target: T1, silk fibroin, sericin-extracted, from …; test: HPLC of 23RGD extracted from lyophilised silk precipitate; formulation SCVLO
Protocol: as §1

[10] = biological target: T1, silk fibroin, sericin-extracted, from …; test: HPLC of 23RGD extracted from lyophilised silk precipitate; formulation printed as RLO
Protocol: as §1

[11] = biological target: T1, silk fibroin, sericin-extracted, from …; test: HPLC of 23RGD extracted from lyophilised silk precipitate; formulation printed as RMED
Protocol: as §1

[12] = biological target: T1, silk fibroin, sericin-extracted, from …; test: HPLC of 23RGD extracted from silk precipitate; formulation AVLO, against the calculated ratio
Protocol: as §1
(§2) Few of the silk precipitates entrained a molar ratio similar to what was initially calculated (FIG. 23). Four groups, SCVLO, AVHI, RHI, and RLO contained ratios similar to their calculated values of RGD per mole of silk. The six remaining groups contained ratios substantially greater than their calculated values. In the cases of AVLO, BASE, RMED, and SCLO, the RGD quantities were about 2-fold greater than expected. Although not wishing to be limited by theory, this greater observed molar ratio may be indicative of the formation of a RGD bi-layer. […]

[13] = biological target: T1, silk fibroin, sericin-extracted, from …; test: HPLC of 23RGD extracted from silk precipitate; formulation ECLO, against the calculated ratio
Protocol: as §1, §2

B1: 23RGD peptide (HOOC-GRGDIPASSKG4SRL6R-NH2) (peptide)
peptide: GRGDIPASSKGGGGSRLLLLLLR
modifications: not fully specified; -NH2 at the Arg end as printed (HOOC-Gly-...-Arg-NH2). An optional variant, SEQ ID NO: 2, is acylated (Ac-) and has D-arginines.
notes: also called 23RDG
apparent saturation, 23RGD:silk ratio [1]: ~10 mol 23RGD per mol silk
23RGD:silk ratio bound [2]: ~10 mol 23RGD per mol silk
23RGD:silk ratio bound [3]: 10.7 mol 23RGD per mol silk
23RGD:silk ratio bound [4]: 3.35 mol 23RGD per mol silk
23RGD:silk ratio bound [5]: 10.5 mol 23RGD per mol silk
23RGD:silk ratio bound [6]: 5.2 mol 23RGD per mol silk
23RGD:silk ratio bound [7]: 8.7 mol 23RGD per mol silk
23RGD:silk ratio bound [8]: 9.9 mol 23RGD per mol silk
23RGD:silk ratio bound [9]: 11 mol 23RGD per mol silk
23RGD:silk ratio bound [10]: 1.1 mol 23RGD per mol silk
23RGD:silk ratio bound [11]: 6.95 mol 23RGD per mol silk
fold of bound RGD over the calculated RGD:silk ratio [12]: ~2 fold
fold of bound RGD over the calculated RGD:silk ratio [13]: ~1.5 fold

Reference: patent US20110189292A1 (ALLERGAN, published 2011)
